In general, EC50 refers to the concentration giving half of the maximal effect.

Consider seven molecules from patent US20180319855A1, “GENETICALLY MUTATED AEQUORIN-BASED BIOSENSORS WITH EXTRA SENSITIVITY TO CALCIUM AND IMPROVED BIOLUMINESCENCE INTENSITY” (CENTRE NATIONAL DE LA RECHERCHE SCIENTIFIQUE (CNRS), priority 2015, published 2018).

Residue numbers refer to the chain shown, from its start. Names and notes keep the numbering of the source.

To fix the notation:
B1: Redq/QT + AT: aporedquorin mutant Q159T + A179T (SEQ ID NO:24) (protein)
chain: MVSKGEEVIKEFMRFKVRMEGSMNGHEFEIEGEGEGRPYEGTQTAKLKVTKGGPLPFAWDILSPQFMYGSKAYVKHPADIPDYKKLSFPEGFKWERVMNFEDGGLVTVTQDSSLQDGTLIYKVKMRGTNFPPDGPVMQKKTMGWEASTERLYPRDGVLKGEIHQALKLKDGGHYLVEFKTIYMAKKPVQLPGYYYVDTKLDITSHNEDYTIVEQYERSEGRHHLFLGHGTGSTGSGSSGTASSEDNNMAVIKEFMRFKVRMEGSMNGHEFEIEGEGEGRPYEGTQTAKLKVTKGGPLPFAWDILSPQFMYGSKAYVKHPADIPDYKKLSFPEGFKWERVMNFEDGGLVTVTQDSSLQDGTLIYKVKMRGTNFPPDGPVMQKKTMGWEASTERLYPRDGVLKGEIHQALKLKDGGHYLVEFKTIYMAKKPVQLPGYYYVDTKLDITSHNEDYTIVEQYERSEGRHHLFLSGFDNPRWIGRHKHMFNFLDVNHNGKISLDEMVYKASDIVINNLGATPEQAKRHKDAVEAFFGGAGMKYGVETDWPAYIEGWKKLATDELEKYAKNEPTLIRIWGDALFDIVDKDQNGAITLDEWKAYTKAAGIIQSSEDCEETFRVCDIDESGTLDVDEMTRQHLGFWYTMDPTCEKLYGGAVP
modifications: mutant aequorin
B2: S157D: apoaequorin mutant, serine 157 replaced by aspartic acid (SEQ ID NO:12) (protein)
chain: SKLTSDFDNPRWIGRHKHMFNFLDVNHNGKISLDEMVYKASDIVINNLGATPEQAKRHKDAVEAFFGGAGMKYGVETDWPAYIEGWKKLATDELEKYAKNEPTLIRIWGDALFDIVDKDQNGAITLDEWKAYTKAAGIIQSSEDCEETFRVCDIDEDGQLDVDEMTRQHLGFWYTMDPACEKLYGGAVP
modifications: mutant aequorin
B3: QD + AT: apoaequorin double mutant Q159D + A179T (SEQ ID NO:17) (protein)
chain: B2 chain with D157S, Q159D, A179T
modifications: mutant aequorin
B4: Q159G: apoaequorin mutant, glutamine 159 replaced by glycine (SEQ ID NO:7) (protein)
chain: B2 chain with D157S, Q159G
modifications: mutant aequorin
B5: N121D: apoaequorin mutant, asparagine 121 replaced by aspartic acid (SEQ ID NO:9) (protein)
chain: B2 chain with N121D, D157S
modifications: mutant aequorin
B6: QD + AD: apoaequorin double mutant Q159D + A123D (SEQ ID NO:15) (protein)
chain: B2 chain with A123D, D157S, Q159D
modifications: mutant aequorin
B7: QD + ND: apoaequorin double mutant Q159D + N121D (SEQ ID NO:13) (protein)
chain: B2 chain with N121D, D157S, Q159D
modifications: mutant aequorin

A short description of one data set: Thermostability: relative bioluminescence activity after 30 min incubation. It counts as physicochemical. The conditions noted are these: 30° C. for 30 min; CLZ-f. On the procedure: Thermostability of aequorin and redquorin mutant with increased affinity for calcium were compared to wt-aequorin (FIG. 5). The purified photoprotein samples were reconstituted with CLZ-f (as detailed earlier) and let to calibrate at room temperature (20-24° C.) for 20 min before taken the first measurement of total counts using saturating calcium solution (50 mM Tris-HCl, 100 mM CaCl2, pH 7.5). Samples were then incubated at two different temperatures (30 to 40° C.) for 30 min, and let equilibrate at room temperature for 15 minbefore taken the second measurement of total counts in the sample. The relative bioluminescence activity at each temperature was calculated by the ratio 2nd counts (at target T° C.)/1st counts (at initial T° C.) multiplied by 100.
Table 6 highlights the analysis of thermostability data obtained at two temperatures for aequorin and redquorin mutants, as well as CitA and GA. The values represent the degree of change in luminescence activity compared to wt-aeq, at each temperature. All values are relative to wt-aequorin (at each temperature) and were calculated by dividing the obtained data for each mutant/variant by the data for wt-aeq (as reference). The data were taken from FIG. 5.
For the molecule B1, the “Thermostability, luminescence activity relative to wt-aequorin” value was determined as 0.96.
With B2, the “Thermostability, luminescence activity relative to wt-aequorin” value turned out to be 0.77.
The same measure, in the same setting: with B3 the figure was 1.05.
As to B4, the “Thermostability, luminescence activity relative to wt-aequorin” value came out at 0.96.
With B5, the “Thermostability, luminescence activity relative to wt-aequorin” value was 0.81.
B6: the “Thermostability, luminescence activity relative to wt-aequorin” value is recorded as 0.97.
On the same count and under the same terms, the figure for B7 is 0.81.

The same data set, now with this note: 40° C. for 30 min; CLZ-f.
On to B1, for which the “Thermostability, luminescence activity relative to wt-aequorin” value is 1.03.
Consider B2, for which the “Thermostability, luminescence activity relative to wt-aequorin” value is recorded as 0.71.
On to B3, for which the “Thermostability, luminescence activity relative to wt-aequorin” value came to 1.07.
With B4, the “Thermostability, luminescence activity relative to wt-aequorin” value is listed as 0.92.
Still for that read-out and setting: the figure for B5 is 0.82; for B6 it is 0.94.
On the same count and under the same terms, the figure for B7 is 0.81.

The same data set, now with this note: after incubation at 30 and 40° C.
As to B2, the “less activity compared to wt-aeq (thermostability)” value is given as “up to 29%”.
As for B5, the “less activity compared to wt-aeq (thermostability)” value was determined as 19%.
Still for that read-out and setting: the figure for B7 is 20%.

The nature of a further data set: Ca2+ sensitivity curves of reconstituted photoproteins (L/Lmax vs free Ca2+). To be noted: CLZ-f; L/Lmax compared to Aeq-wt. Format: biochemical. On the procedure:
For in vitro reconstitution, the purified and concentrated samples of apoaequorin and redquorin mutant proteins were buffer-exchanged to 50 mM Tris-HCl (pH 7.5), 150 mM NaCl, 10 mM EGTA, 5 mM ß-mercaptoethanol, supplemented with 5 μM CLZ-f or CLZ-native and incubated overnight at 4° C., in the dark. The next day, samples were passed through molecular weight cut-offs (AmiconUitra MWCO, 10K and 50K, from Millipore), then resuspended in Zero-Ca^2+ buffer (30 mM MOPS, 100 mM KCl and 10 mM EGTA, pH 7.2) for calcium affinity, emission decay kinetics and spectral analysis assays. As for in cellulo reconstitution, HEK cells transiently expressing the proteins of apoaequorin and aporedquorin mutants were washed twice with Hank's Balanced Salt Solution (HBSS) and incubated in the dark, with 4 μM of the desired CLZ diluted in OptiMEM I medium (Gibco), for 2-3h at 37° C. and 5% CO2. Cells were washed once and maintained in HBSS at 37° C. for 20 min before the experiment.
Functional Analysis of Aequorin Mutants and Fusions Ca^2+ Sensitivity Curves.
Purified and reconstituted samples with CLZ-f or CLZ-native already buffered-exchanged to zero-calcium buffer ensured to minimize calcium contamination that could interfere with the measurements. Fifteen microliter aliquot of photoprotein samples (concentration range, 50 to 90 ng/μl) was placed in a home-made luminometer and mixed with 300 μl solution containing the desired concentration of free-Ca^2+. The solutions of EGTA-buffered with varying free-Ca^2+ prepared according to the manufacturer instruction for the kit (Molecular Probes, Invitrogen). Integration of the luminescence emission (per second) was measured for 20 seconds (background) before injecting a solution with known [free-Ca^2+] and lasted until stable or decaying signal (at final-phase) was obtained. At this point, 400 μl of a saturating calcium solution (30 mM MOPS, 100 mM CaCl2, pH 7.2) was rapidly injected (less than 30 ms) and light integration continued until all aequorin had been consumed and light intensity had gone back to background signal. Luminescence intensity (L) at different [Ca^2+] was taken as the response peak value in case of decaying signal or as the stable value in case of stable emission. Lmax, was measured by integrating all remaining luminescence signal from that moment (L value) to the end of the experiment. The EC50 values were extracted from a sigmoidal dose-response fit (variable slope) using GraphPad Prism software.
In the case of B2, the “Relative intensity at pCa 6.5” value is reported as 6.0 and the “Relative intensity at pCa 7.2” value was found to be 2.2.
Take B3: the “Relative intensity at pCa 6.5” value is 58.5 and the “Relative intensity at pCa 7.2” value is on record as 60.8.
Regarding B4, the “Relative intensity at pCa 6.5” value came to 3.3 and the “Relative intensity at pCa 7.2” value was 3.2.
As to B5, the “Relative intensity at pCa 6.5” value was 4.9 and the “Relative intensity at pCa 7.2” value amounted to 2.1.
Take B6: the “Relative intensity at pCa 6.5” value was 26.2 and the “Relative intensity at pCa 7.2” value is 15.0.
Take B7: the “Relative intensity at pCa 6.5” value was found to be 29.0 and the “Relative intensity at pCa 7.2” value was 41.7.

The data set is the same for the next values; noted with them: CLZ-f; redquorin series, CitA, GA; read-out: Calcium sensitivity, EC50.
For B1, the EC50 worked out at 284 ± 30 nM.

Still in this data set, the particulars now being: CLZ-f; relative to Redq.
Turning to B1, the “Relative intensity at pCa 6.5” value came to 25.6 and the “Relative intensity at pCa 7.2” value was determined as 9.0.

Staying with this data set, now noted: CLZ-native; redquorin series, CitA, GA; read-out: Calcium sensitivity, EC50.
On to B1, for which the EC50 was 605 ± 16 nM.

The data set is the same for the next values; noted with them: CLZ-native; relative to Redq.
With B1, the “Relative intensity at pCa 6.5” value is given as 18.3 and the “Relative intensity at pCa 7.2” value came to 14.1.

Still in this data set, the particulars now being: aequorin proteins reconstituted with CLZ-f; sigmoidal curve fit; mean ± SD, n at least 3; read-out: Calcium sensitivity, EC50.
For the molecule B2, the half-maximal effective concentration (EC50) worked out at 322 nM.
On to B3, for which the concentration giving a half-maximal response (EC50) is 216 nM.
As to B4, the 50% effective concentration (EC50) is 492 ± 10 nM.
Still for that read-out and setting: the figure for B5 is 400 ± 14 nM; for B6 it is 271 ± 15 nM; for B7 it is 295 ± 17 nM.
